Data from patent KR20220012792A (dated 2022).
Like-named read-outs stand apart in the source and are kept apart here.

Legend:
Experiment in all cases: cell-based or functional assay
[1] = target: T1, S 단백질 of SARS-CoV-2 BetaCoV/Korea/KCDC03/2020 (614D, S형) (SARS-CoV-2)
[2] = target: S 단백질 of SARS-CoV-2 hCoV-19/Korea/KCDC31/2020 (V형) (SARS-CoV-2)
[3] = target: S 단백질 of SARS-CoV-2 hCoV-19/South Korea/KNIH04/2020 (L형) (SARS-CoV-2)
[4] = target: T1, S 단백질 of SARS-CoV-2 …; remark: listed apart in the source
[5] = target: T1, S 단백질 of SARS-CoV-2 …; remark: listed apart in the source

B1: No. 139 항체 (Full IgG) (antibody, V domains shown)
VH: QITLKESGPTLVKPTQTLTLTCSFSGFSLSTSGVGVGWIRQPPGKALEWLALIDWDDNKYHTTSLKTRLTISKDTSKNQVVLTMTNMDPVDTATYYCARIPGFLRYRNRYYYYGMDVWGQGTTVTVSS
VL: ELVLTQPPSVSAAPGQKVTISCSGSSSNIGNNYVSWYQQLPGTAPKLLIYDNNKRPSGIPDRFSGSKSGTSATLGITGLQTGDEADYYCGTWDSSLSAGVFGGGTELTVL
IC50 (ng/ml), PRNT [1]: 4.1 ng/mL
IC50, PRNT [1]: 8.37 ng/mL
IC50 (ng/ml), PRNT [2]: 8 ng/mL
IC50 (ng/ml), PRNT [3]: 4.79 ng/mL
IC50 (ng/ml), PRNT [4]: 6.76 ng/mL
IC50 (ng/ml), PRNT [5]: 29.8 ng/mL
